The target in the assay is T1, CEACAM6 on the surface of the tumor cells (HPAFII cells) (UniProt P40199 35-320).
T1 construct: whole, on cells
T1 sequence (looked up): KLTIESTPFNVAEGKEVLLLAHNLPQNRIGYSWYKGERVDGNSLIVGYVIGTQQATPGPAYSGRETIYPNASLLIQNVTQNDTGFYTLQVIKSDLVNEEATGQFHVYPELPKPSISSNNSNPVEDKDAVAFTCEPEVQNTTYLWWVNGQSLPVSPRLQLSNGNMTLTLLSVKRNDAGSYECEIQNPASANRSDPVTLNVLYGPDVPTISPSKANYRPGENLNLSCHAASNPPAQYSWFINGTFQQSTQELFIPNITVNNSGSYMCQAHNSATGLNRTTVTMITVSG
As to the kind of experiment: flow cytometry on HPAFII cells (Mean PE); the cells carry CEACAM5 and CEACAM6, signal not divided between the two. On the procedure: Centrifugation (1000 rpm, 5 min) was performed, followed by washing with PBS, re-centrifugation, and repeated twice to remove media residues. The supernatant was discarded, 100 μL of primary antibody solution and irrelevant antibody solution were added to the experimental group and irrelevant antibody group, respectively, and the cells were resuspended and incubated at room temperature for 1 h. The blank group, and the negative control group were incubated with an equal amount of PBS.
After 1 h, PBS was added to wash twice. After the supernatant was discarded, 100 μL of fluorescent secondary antibody dilution (Secondary antibody from Abcam ab98596) was added to each sample group, except for the blank group which was added with 100 μL of PBS. After incubation at room temperature and protected from light for 0.5 h, centrifugation was performed and PBS added to wash the samples twice. After the supernatant was discarded, 120 μL of PBS was added to resuspend and sequentially flow cytometry was performed to detect the mean fluorescence intensity. The concentration of the antibody was logarithmically taken as the horizontal coordinate, and the Sigmoidaldose-response (VariableSlope) method (GraphPadPrism Software, GraphPadSoftware, San Diego, California) was chosen to perform a nonlinear regression to obtain the binding activity curves of the antibody on HPAFII cells.

B1: Antibody I (antibody, human IgG1, kappa, V domains shown)
VH: EVKLVESGGGLVQPGGSLRLSCATSEFTLIDYYMSWVRQSPGKALEWLGYIRNKVNGHTTDYIASVKGRFTISRDDSKNSLYLQMNSLKTEDTATYYCVRDPGINWYFDVWGQGTLVTVSS
VL: QIVLTQSPATLSLSPGERATLSCRASSRVTYMHWYQQKPGSSPKPLISATSNLASGIPARFSGSGSGTDYTLTISSLEPEDFATYYCQQWSYNPPTFGGGTKLELKR
notes: humanized from mouse-derived antibody 2; also called humanized antibody I
Consider B1, for which the binding result is “binds”.

Source of the values: patent US20250250335A1 (SHENGHE CHINA BIOPHARMACEUTICAL, published 2025).
